How the values were obtained:
[1] = molecular target: BVDV NS5A recombinant protein (Bovine viral diarrhea virus 1, RefSeq …, UniProt P19711); assay: ELISA; indirect ELISA (i-ELISA); NS3 or NS5A coated on 96-well plates (10 ug/mL for the panning and serum ELISA); OD450 read; nanobody targeting PRRSV as negative control
[2] = molecular target: T1, BVDV NS3 recombinant protein (Bovine viral diarrhea virus 1, RefSeq …); assay: as above
T1 chain: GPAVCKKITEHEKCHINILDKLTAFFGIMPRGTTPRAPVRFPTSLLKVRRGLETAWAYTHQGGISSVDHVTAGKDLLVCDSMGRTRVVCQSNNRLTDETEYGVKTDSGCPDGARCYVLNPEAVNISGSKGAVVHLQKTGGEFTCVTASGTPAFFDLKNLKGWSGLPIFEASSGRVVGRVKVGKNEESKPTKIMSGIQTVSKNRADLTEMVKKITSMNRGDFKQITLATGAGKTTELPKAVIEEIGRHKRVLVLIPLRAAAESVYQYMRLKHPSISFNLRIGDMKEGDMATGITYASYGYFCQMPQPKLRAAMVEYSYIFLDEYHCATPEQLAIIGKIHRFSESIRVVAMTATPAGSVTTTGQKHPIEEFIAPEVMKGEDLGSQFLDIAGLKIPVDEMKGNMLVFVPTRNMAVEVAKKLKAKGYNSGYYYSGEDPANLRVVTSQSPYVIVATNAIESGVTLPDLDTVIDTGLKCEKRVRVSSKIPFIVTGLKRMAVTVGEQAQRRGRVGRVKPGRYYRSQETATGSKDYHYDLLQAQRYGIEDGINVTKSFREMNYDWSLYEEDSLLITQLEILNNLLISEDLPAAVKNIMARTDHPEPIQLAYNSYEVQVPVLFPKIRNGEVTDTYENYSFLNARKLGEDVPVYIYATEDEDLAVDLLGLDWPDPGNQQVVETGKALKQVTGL

Sequence of BVDV NS5A recombinant protein (P19711 2774-3269): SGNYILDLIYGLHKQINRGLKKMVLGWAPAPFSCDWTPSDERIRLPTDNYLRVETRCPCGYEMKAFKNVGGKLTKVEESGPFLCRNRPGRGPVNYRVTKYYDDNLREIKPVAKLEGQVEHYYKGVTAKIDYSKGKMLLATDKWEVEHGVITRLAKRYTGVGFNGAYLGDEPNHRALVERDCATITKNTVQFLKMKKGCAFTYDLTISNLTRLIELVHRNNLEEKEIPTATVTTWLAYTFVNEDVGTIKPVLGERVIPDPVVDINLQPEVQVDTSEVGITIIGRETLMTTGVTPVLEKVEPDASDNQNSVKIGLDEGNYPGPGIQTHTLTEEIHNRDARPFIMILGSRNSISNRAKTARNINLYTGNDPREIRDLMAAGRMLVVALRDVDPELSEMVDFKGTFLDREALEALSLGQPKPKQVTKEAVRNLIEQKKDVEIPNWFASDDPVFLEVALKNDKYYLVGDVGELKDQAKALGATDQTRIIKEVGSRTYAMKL

B1: Nb10 (VHH)
VHH: QVQLQESGGGLVQPGGSLRLSCAASGETARSGACGWFRQAPGKEREGVASINRYGFRTYADSVKGRFTISTDNAKNTVDLQMSNLRPEDTAAYYCAADSLTFWSAPCCSSTSPGTWGQGTQVTVSS
notes: also called nanobody Nb10
binding result [1]: binds

B2: Nb11 (VHH)
VHH: QVQLQESGGGSVQPGGSRRLSCEGSGETLGYRRQTWFRQAPGKEREGVSCISSLDDGTYYKDSVKGRFTISRDNANKMVYLQMNSLEPEDTAIYYCAADPERSSYSGPLGSLGYSYWGQGTQVTVSS
notes: also called nanobody Nb11
binding result [1]: binds

B3: Nb15 (VHH)
VHH: QVQLQESGGGLVQPGGSLRLSCAASGGSLTYYCMAWFRQTPGKEREWVSCISNYGFTINYADSVKGRFSISRDNAKNTVYLAMHIPEPEDTGVYVCADLSFEHLYYCSTAQSEGSEWGQGTQVTVSS
notes: also called nanobody Nb15
binding result [1]: binds

B4: Nb19 (VHH)
VHH: QVQLQESGGGLVQPGGSLRLSCAASGFTFQTYSMGWVRQAPGKGLEWVSSISGDGSTYYSDSVKGRFTISTDNANTLYLQMNSLKSEDTAVYYCAKERSPADYRNWLMPYWGKGTLVTVSS
notes: also called nanobody Nb19
binding result [2]: binds

B5: Nb22 (VHH)
VHH: QVQLQESGGGLVQPGGSLRLSCRASGYTSCMAWFRQAPKEREGVASINSDGSTAYADSVQGRFTISRDNTMNTLYLQMNSLKPEDTAMYYCAAERPSSCLPRNIWVDTNYWGQGTQVTVSS
notes: also called nanobody Nb22
binding result [2]: binds

— article PMC12650317 (Biomolecules, 2025)
